Assay [1] has as its target T1, GST-HPV-16 E6 (human papillomavirus type 16), P03126.
T1 chain: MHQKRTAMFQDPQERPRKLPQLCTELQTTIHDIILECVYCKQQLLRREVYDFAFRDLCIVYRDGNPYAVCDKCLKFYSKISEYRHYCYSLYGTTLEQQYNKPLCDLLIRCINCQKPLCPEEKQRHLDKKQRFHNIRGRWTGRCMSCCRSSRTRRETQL
Nature of the assay: filter plate bead binding assay (BAP chemiluminescence); competition: peptide added to bead-bound GST-E6 and free E6AP-BAP; 1 hour incubations.

Assay [2] has as its target T2, GST-HPV-16 E6 (human papillomavirus type 16, UniProt P03126 1-158).
T2 construct: early protein 6 (E6) of human papillomavirus type 16; also called GST-E6; GST-16 E6; source: E. coli BL21, purified on glutathione Sepharose beads and kept on the beads
Description: filter plate bead binding assay (BAP chemiluminescence); dissociation rate experiment: GST-E6 and E6AP-BAP bound to equilibrium, unbound E6AP-BAP washed away, decrease in BAP signal at each time point. As to conditions: both partners purified.

In assay [1], IPESSELTLQELLGEERR (modifications not checked) [E6AP 18-mer peptide] showed a percent inhibition at 100 µM of 95%.

B1: E6AP-BAP fusion protein (E6AP residues 371-440 fused to bacterial alkaline phosphatase) (domain or fragment, UniProt Q05086 371-440, looked up)
chain: ASKCLKMVYYANVVGGEVDTNHNEEDDEEPIPESSELTLQELLGEERRNKKGPRVDPLETELGVKTLDCR
notes: also called FLAG-tagged E6AP-BAP; source: E. coli BL21, purified (anti-FLAG resin, glycine pH 2.5 elution)
In the case of B1, in assay [2], the “half-life of ligand dissociation (t1/2)” value was 3.6 min.

(Values after PMC3871595, “Structure Based Identification and Characterization of Flavonoids That Disrupt Human Papillomavirus-16 E6 Function” (PLoS ONE, 2013).)
